± gives the standard error. For part of these data: This sample holds only a part of the variants without activity.
B1: glmS ribozyme (parent)
chain: AUAAAAGCGCCAGAACUACAGAAAUGUAGUUGACGAGGAGGAGGUUUAUCGAAUUUUCGGCGGAUGCCUCCAAA

Assays:
Details in all cases: with glucosamine-6-phosphate
glucosamine-6-phosphate [1] = variants of: B1; assay: kcat; higher = faster cleavage; RNA array
In short: (§1)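 Tiles of sequenced MiSeq chips were imaged over ~14 h at 37 °C. On them, barcoded ribozyme variants had been transcribed in situ by E. coli RNA polymerase and were tracked via a hybridised Cy3 probe while glucosamine-6-phosphate (40 μM to 10 mM) in HEPES/KCl/Mg(OAc)2 buffer flowed in. Per-tile medians, normalised to baseline and to non-cleaving reference variants, were fit to one- or two-exponential decays for kobs, and weighted Michaelis–Menten fits gave kcat and KM.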

glucosamine-6-phosphate [2] = variants of: B1; assay: KM; higher = weaker cofactor use; RNA array
In short: as §1

glucosamine-6-phosphate [3] = variants of: B1; assay: self-cleavage kobs at 10000 uM GlcN6P; higher = faster cleavage; RNA array
In short: as §1

glucosamine-6-phosphate [4] = variants of: B1; assay: self-cleavage kobs at 160 uM GlcN6P; higher = faster cleavage; RNA array
In short: as §1

glucosamine-6-phosphate [5] = variants of: B1; assay: self-cleavage kobs at 640 uM GlcN6P; higher = faster cleavage; RNA array
In short: as §1

glucosamine-6-phosphate [6] = variants of: B1; assay: self-cleavage kobs at 2500 uM GlcN6P; higher = faster cleavage; RNA array
In short: as §1

glucosamine-6-phosphate [7] = variants of: B1; assay: self-cleavage kobs at 40 uM GlcN6P; higher = faster cleavage; RNA array
In short: as §1

Variant | kcat (glucosamine-6-phosphate [1]) [s⁻¹] | KM (glucosamine-6-phosphate [2]) [µM] | self-cleavage kobs at 10000 uM GlcN6P (glucosamine-6-phosphate [3]) [s⁻¹] | self-cleavage kobs at 160 uM GlcN6P (glucosamine-6-phosphate [4]) [s⁻¹] | self-cleavage kobs at 640 uM GlcN6P (glucosamine-6-phosphate [5]) [s⁻¹] | self-cleavage kobs at 2500 uM GlcN6P (glucosamine-6-phosphate [6]) [s⁻¹] | self-cleavage kobs at 40 uM GlcN6P (glucosamine-6-phosphate [7]) [s⁻¹]
A6C U31G | 2.39e-05 ± 9.7e-07 | 3730 ± 510 | 1.74e-05 ± 5.6e-06 | – | – | – | –
G40C C58A | 1.41e-05 ± 2.3e-06 | – | – | < 1e-05 | – | – | –
G29A C70A | 3.87e-05 ± 5e-06 | – | 2.96e-05 ± 1.4e-05 | – | 4.17e-05 ± 1.5e-05 | 4.02e-05 ± 1.1e-05 | –
A15U U31G C71U | 0.00048 ± 0.00012 | – | 0.000517 ± 9.1e-05 | 6.51e-05 ± 1.8e-05 | 0.000238 ± 3.6e-05 | 0.000267 ± 6.8e-05 | 6.97e-05 ± 3.1e-05
G13C A14C U45A | 0.000417 ± 0.00017 | – | 0.000262 ± 5.6e-05 | – | – | 0.000212 ± 4.3e-05 | –
G44A U65A | 0.000154 ± 9.6e-06 | 828 ± 240 | 0.000139 ± 2e-05 | – | 6.51e-05 ± 2.8e-05 | 0.000133 ± 3.6e-05 | –
A42C C70G | 4.99e-05 ± 4.3e-06 | 1410 ± 550 | 4.32e-05 ± 6.7e-06 | – | – | 3.37e-05 ± 7.9e-06 | –
U31A C58G | 0.000589 ± 0.00022 | – | 0.00013 ± 1.9e-05 | – | – | 3.87e-05 ± 1.3e-05 | –
C11A U45A | 0.000361 ± 6.9e-05 | 3010 ± 1100 | 0.000262 ± 3.8e-05 | – | 5.63e-05 ± 1.2e-05 | 0.000214 ± 3.6e-05 | –
A15C C70G C71A | 4.1e-05 ± 1.4e-05 | – | – | 4.75e-05 ± 2e-05 | 6.35e-05 ± 1.7e-05 | – | –
A42G G51A | < 1e-05 | – | < 1e-05 | – | – | – | < 1e-05
G41A U46G C70U | 0.00726 ± 0.0013 | 620 ± 170 | 0.00749 ± 0.002 | – | 0.00452 ± 0.0018 | – | 0.000436 ± 0.0001
C16G U31G | 0.000843 ± 0.00018 | 2360 ± 940 | 0.00071 ± 0.0001 | 4.98e-05 ± 1.6e-05 | 0.000186 ± 4.5e-05 | 0.000366 ± 0.0001 | 4.37e-05 ± 1.7e-05
A12C U47G | 0.00307 ± 0.00048 | 1400 ± 310 | 0.00245 ± 0.00036 | 0.000267 ± 4.4e-05 | 0.00106 ± 0.00014 | 0.00247 ± 0.00041 | 9.09e-05 ± 1.3e-05
A48C U69C | 7.16e-05 ± 1.1e-05 | – | 6.44e-05 ± 1.5e-05 | < 1e-05 | 6.02e-05 ± 1.9e-05 | 9.22e-05 ± 2.4e-05 | < 1e-05
A6G A12C | 0.000313 ± 8.2e-05 | – | 0.000159 ± 1.7e-05 | – | – | 6.08e-05 ± 3e-05 | –
U49G U55G | 0.000836 ± 7.3e-05 | 1400 ± 250 | 0.000687 ± 9.4e-05 | 8.7e-05 ± 1.8e-05 | 0.000247 ± 5e-05 | 0.000582 ± 6.3e-05 | –
